From patent US20240358755A1 (IMMATICS BIOTECHNOLOGIES, published 2024)

molecular target: T1, HLA-A*02:01 (human); test: UV peptide exchange, anti-b2m ELISA; exchange yield grade
T1 construct: Peptide-receptive MHC class I monomer in the UV-ligand exchange assay

peptide exchange yield [%]	Binder
≥ 75	GLLGTLRVL
50 to 75	FALGPIIKQL
≥ 75	KLPFFTNFL
≥ 75	LLDSWNILI

molecular target: HLA-B*44:05 (human); test: as above

binding result	Binder
binds	TEIGTVIKLF
binds	METADRPEW

molecular target: T2, HLA-A*24:02 (human); test: allele assigned to HLA ligand eluted from tissue (IP, LC-MS)
T2 construct: Peptide-receptive MHC class I monomer in the UV-ligand exchange assay

binding result	Binder
binds	LYDTVTHTF
binds	VFLLLPYPRF
binds	IYLTKSNLVNM
binds	SHSSPTVSF
binds	SQIKSPVVF
binds	KFPPSASEF
binds	EYLGSENVF
binds	VWILQKVNLAF
binds	ILAPPQRISF
binds	QYLTYYPSF
binds	IFTGRNAYF
binds	VYIASSFKI
binds	FQLSGPVTF
binds	TYLESSVRI
binds	VFVISGSHLF
binds	FYNPRPPLI
binds	LWALAIPSL
binds	IWRALGSLF
binds	NFHTLAQQLLF
binds	LWEEKPVCL
binds	LYLETRSEF
binds	AWNESSAWLL
binds	SYLKDHLSL
binds	VLYPSHSSF
